Patent US20230340152A1 (published 2023)
Residue numbers refer to the chain shown, from its start. Numbers in names are those of the source.

B1: C1 (IgG1-TM) (antibody, V domains shown)
VH: EVQLLESGGGLVQPGGSLRLSCAASGFTFSSYAYSWVRQAPGKGLEWVSAISGSGGSTYYADSVKGRFTISRDNSKNTLYLQMNSLRAEDTAVYYCARLGYSTIDKWGRGTLVTVSS
VL: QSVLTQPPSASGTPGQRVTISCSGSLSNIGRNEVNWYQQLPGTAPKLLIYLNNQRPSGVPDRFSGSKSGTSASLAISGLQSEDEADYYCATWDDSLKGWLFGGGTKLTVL
notes: IgG1-TM format; also called clone 10 C1
B2: CD730011 (antibody, V domains shown)
VH: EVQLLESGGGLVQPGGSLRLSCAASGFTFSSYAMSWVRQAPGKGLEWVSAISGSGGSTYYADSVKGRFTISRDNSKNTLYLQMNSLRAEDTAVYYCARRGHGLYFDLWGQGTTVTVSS
VL: NFMLTQPHSVSESPGKTVTISCTRSSGSIASKYVQWYQQRPGSSPMAVIYKDNQRSSGVPDRFSGSIDSSSNSASLTISGLKPEDEADYYCQSYDASNYYVFGTGTKVTVL
notes: IgG1-TM format; also called CD730011 antibody; CD7300011
B3: CD730021 (antibody, V domains shown)
VH: QVQLQESGPGLVRPSETLSLTCTVSGGSISSSSYYWAWVRQSPGKGLEWIGNIYYRGSTYYNPSLKSRVTMSVDMSKHQFSLKLSSLNAADTAVYYCASLYSGTYVFDYWGRGTLVTVSS
VL: QSVLTQPPSASGTPGQRVTISCSGSRPNIGGNTVNWYQQLPGAAPKLLIYSNSQRPSGVPDRFSGSKYGTSASLAISGLQSDDEADYYCGTWDDSLNGPVFGRGTKLTVL
notes: IgG1-TM format; also called CD730021 antibody
B4: CD730047 (antibody, V domains shown)
VH: EVQLVQSGGGVVQPGRSLRLSCAASGFTFSSYGMHWVRQAPGKGLEWVAVISYDGSIKYYADSVKGRFAISRDNAKNTLYLQMNSLRREDTAMYYCASGLTGVAGALGVWGRGTLVTVSS
VL: QSVLTQPPSASGAPGQRVTISCSGSSSNIGSNTVNWYQRLPGAAPQLLIYNNDQRPSGIPDRFSGSKSGTSGSLVISGLQSEDEADYYCAAWDDSLSGNVFGTGTKVTVL
notes: IgG1-TM format; also called CD730047 antibody
B5: CD730042 (antibody, V domains shown)
VH: GVQLVQSGGGLVQPGGSLRLSCAASGFTFSSYGMHWVRQAPGKGLEWVAVISYDGSIKYYADSVKGRFTISRDDSKNALYLQMNSLRAEDTAVYYCSTLSGSYGYFDYWGRGTLVTVSS
VL: QSVLTQPASVSGSPGQSITISCAGTSSDVGGYNYVSWYQQHPGKAPKLMIYEGSKRPSGVSNRFSGSKSGNTASLTISGLQAEDEADYYCSSYTTRSTRVFGGGTKLTVL
notes: IgG1-TM format; also called CD730042 antibody
B6: CD730046 (antibody, V domains shown)
VH: QVQLVQSGGGVVQPGRSLRLSCAASGFTFSSYGMHWVRQAPGKGLEWVAVISYDGSIKYYADSVKGRFTISRDNSKNSLFLQMNSLRDDDTATYYCARGHLLRIGDIFYYSLDVWGQGTLVTVSS
VL: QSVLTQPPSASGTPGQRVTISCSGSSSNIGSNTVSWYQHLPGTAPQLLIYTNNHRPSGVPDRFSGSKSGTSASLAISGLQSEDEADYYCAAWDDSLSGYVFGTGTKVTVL
notes: IgG1-TM format; also called CD730046 antibody
B7: CD730008 (antibody, IgG1, V domains shown)
VH: B1 VH with S7T, Y34M, L99G, G100N, S102G, T103N, I104L, K106H, R109K
VL: QSVLTQPPSVSVSPGQTASITCSGDKVGDKYASWYQQKPGQSPVLVIYQDRKRPSGIPERFSGSNSGNTATLTISGTQPMDEADYYCQAWDSSHWVFGGGTKLTVL
notes: IgG1-TM format; also called CD730008 antibody
B8: CD730004 (antibody, V domains shown)
VH: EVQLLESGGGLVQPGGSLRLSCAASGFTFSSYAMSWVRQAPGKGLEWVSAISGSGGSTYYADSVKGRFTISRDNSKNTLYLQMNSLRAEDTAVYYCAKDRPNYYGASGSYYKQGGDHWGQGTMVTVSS
VL: NFMLTQPHSVSESPGQTVTISCTRSSGSIASKYVQWYQKRPGSSPTTVIYEDTQRPSGVPDRFSGSIDISSNSASLTISGLRTEDEADYYCQSYDSTNWVFGGGTKVTVL
notes: IgG1-TM format; also called CD730004 antibody
B9: CD730010 GL9 VH S52W Fab (Fab, name in Kabat numbering, V domains shown)
VH: B1 VH with Y34M, S52W, K106Y
VL: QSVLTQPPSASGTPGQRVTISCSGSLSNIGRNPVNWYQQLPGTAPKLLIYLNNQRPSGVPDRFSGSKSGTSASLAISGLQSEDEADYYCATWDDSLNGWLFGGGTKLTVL
notes: Bacterial Fab, normalized supernatant
B10: CD730010 GL9 VH M34I Fab (Fab, name in Kabat numbering, V domains shown)
VH: B1 VH with Y34I, K106Y
VL: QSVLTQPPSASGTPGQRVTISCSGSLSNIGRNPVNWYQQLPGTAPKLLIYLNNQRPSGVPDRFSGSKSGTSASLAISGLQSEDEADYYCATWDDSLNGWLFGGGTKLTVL
notes: as for B9
B11: CD730010 GL9 VH S35H Fab (Fab, name in Kabat numbering, V domains shown)
VH: B1 VH with Y34M, S35H, K106Y
VL: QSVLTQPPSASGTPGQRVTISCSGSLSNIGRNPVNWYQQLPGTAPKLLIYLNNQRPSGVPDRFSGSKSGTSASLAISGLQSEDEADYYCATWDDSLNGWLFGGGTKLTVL
notes: as for B9
B12: CD730010 GL9 VH S56R Fab (Fab, name in Kabat numbering, V domains shown)
VH: B1 VH with Y34M, S57R, K106Y
VL: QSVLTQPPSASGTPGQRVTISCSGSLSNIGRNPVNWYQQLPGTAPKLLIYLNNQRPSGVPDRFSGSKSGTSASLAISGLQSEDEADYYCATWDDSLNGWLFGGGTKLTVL
notes: as for B9
B13: CD730010 GL9 VH M34Y Fab (Fab, name in Kabat numbering, V domains shown)
VH: B1 VH with K106Y
VL: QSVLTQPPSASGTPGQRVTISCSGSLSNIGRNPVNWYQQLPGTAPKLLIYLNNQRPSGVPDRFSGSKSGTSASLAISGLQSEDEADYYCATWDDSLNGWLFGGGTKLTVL
notes: as for B9
B14: CD730010 GL9 VH A50L Fab (Fab, name in Kabat numbering, V domains shown)
VH: B1 VH with Y34M, A50L, K106Y
VL: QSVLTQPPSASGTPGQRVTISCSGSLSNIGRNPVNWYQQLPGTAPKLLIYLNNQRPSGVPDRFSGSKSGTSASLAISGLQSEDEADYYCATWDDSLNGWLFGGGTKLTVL
notes: as for B9
B15: CD730010 GL9 VH G54N Fab (Fab, name in Kabat numbering, V domains shown)
VH: B1 VH with Y34M, G55N, K106Y
VL: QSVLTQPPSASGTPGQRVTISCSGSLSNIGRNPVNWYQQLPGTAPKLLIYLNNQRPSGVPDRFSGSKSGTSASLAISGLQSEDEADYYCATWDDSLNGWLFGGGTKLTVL
notes: as for B9
B16: CD730010 GL9 VH G54W Fab (Fab, name in Kabat numbering, V domains shown)
VH: B1 VH with Y34M, G55W, K106Y
VL: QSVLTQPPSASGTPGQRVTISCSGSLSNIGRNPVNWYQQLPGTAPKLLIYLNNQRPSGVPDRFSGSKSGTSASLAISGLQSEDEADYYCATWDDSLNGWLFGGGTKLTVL
notes: as for B9

molecular target: T1, Human CD73 ECD (human, UniProt P21589 27-549); assay: SPR (Proteon)
T1 construct: Biotinylated in some assays; also called human CD73 extracellular domain; huCD73
T1 sequence: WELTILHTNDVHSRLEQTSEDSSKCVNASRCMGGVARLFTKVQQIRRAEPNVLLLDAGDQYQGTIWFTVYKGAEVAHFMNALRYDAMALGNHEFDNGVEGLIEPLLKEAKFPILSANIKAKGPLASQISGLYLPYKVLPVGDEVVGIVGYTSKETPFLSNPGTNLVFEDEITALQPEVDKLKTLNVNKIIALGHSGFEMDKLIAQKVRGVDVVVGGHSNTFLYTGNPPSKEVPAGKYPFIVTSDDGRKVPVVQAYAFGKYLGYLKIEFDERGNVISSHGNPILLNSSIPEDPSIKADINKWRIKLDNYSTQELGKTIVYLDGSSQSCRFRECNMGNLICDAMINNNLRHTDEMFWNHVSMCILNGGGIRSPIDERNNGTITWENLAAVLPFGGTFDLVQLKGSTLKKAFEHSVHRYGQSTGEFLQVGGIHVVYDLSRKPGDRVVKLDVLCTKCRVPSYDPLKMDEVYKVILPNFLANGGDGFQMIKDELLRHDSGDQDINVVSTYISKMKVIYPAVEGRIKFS

Row | Binder | Kd
1 | B1 | 0.029 nM

molecular target: T2, Murine CD73 ECD (murine, UniProt Q61503 29-551, limits assumed); assay: SPR (Proteon)
T2 construct: extracellular domain; In-house recombinant ECD; also called murine CD73 extracellular domain; muCD73
T2 sequence (looked up): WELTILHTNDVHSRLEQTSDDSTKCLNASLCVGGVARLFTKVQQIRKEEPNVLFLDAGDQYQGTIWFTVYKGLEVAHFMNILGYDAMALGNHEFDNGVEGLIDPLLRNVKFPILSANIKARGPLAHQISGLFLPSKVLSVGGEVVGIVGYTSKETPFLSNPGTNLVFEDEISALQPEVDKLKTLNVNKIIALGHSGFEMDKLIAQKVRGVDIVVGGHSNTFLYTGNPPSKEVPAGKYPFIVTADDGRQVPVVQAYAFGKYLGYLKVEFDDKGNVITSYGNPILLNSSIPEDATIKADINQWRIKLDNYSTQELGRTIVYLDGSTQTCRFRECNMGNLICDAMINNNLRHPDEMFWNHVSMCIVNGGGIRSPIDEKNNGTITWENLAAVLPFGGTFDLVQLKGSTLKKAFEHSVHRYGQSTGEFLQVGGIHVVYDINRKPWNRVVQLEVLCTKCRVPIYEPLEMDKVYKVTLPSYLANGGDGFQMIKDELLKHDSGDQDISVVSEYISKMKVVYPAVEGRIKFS

Row | Binder | Kd
2 | B1 | 0.006 nM

molecular target: T3, Cynomolgus CD73 ECD (cynomolgus, UniProt A0A2K5V5U7 27-549); assay: SPR (Proteon)
T3 construct: extracellular domain; also called cyno CD73
T3 sequence: T1 sequence with M199T, T350A, V466I

Row | Binder | Kd
3 | B1 | 0.012 nM

molecular target: T1, Human CD73 ECD; assay: cell-based or functional assay

Row | Binder | Enzyme Inhibition, rCD73, 1/EC50 (nM)
4 | B2 | 0 nM⁻¹
5 | B3 | 0.0011 nM⁻¹
6 | B4 | 0.001 nM⁻¹
7 | B5 | 0 nM⁻¹
8 | B6 | 0 nM⁻¹
9 | B7 | 0 nM⁻¹

molecular target: T4, Human CD73 on cells (MDA-MB-231, Jurkat CD73 knock-in, NCI-H322) (human, UniProt P21589 27-549); assay: cell-based or functional assay
T4 sequence: T1 sequence

Row | Binder | Enzyme Inhibition, MDA-MB-231, 1/EC50 (nM) | Internalization, MDA-MB-231, 1/EC50 (nM)
10 | B2 | 0.00068 nM⁻¹ | 0 nM⁻¹
11 | B3 | 0.0095 nM⁻¹ | 0.0011 nM⁻¹
12 | B4 | 0.027 nM⁻¹ | 0.001 nM⁻¹
13 | B5 | 0.0032 nM⁻¹ | 0 nM⁻¹
14 | B6 | 0.081 nM⁻¹ | 0 nM⁻¹
15 | B8 | 0.06 nM⁻¹ | 0 nM⁻¹
16 | B7 | 0.11 nM⁻¹ | 0 nM⁻¹

molecular target: T4, Human CD73 on cells (MDA-MB-231, Jurkat …); assay: flow cytometry on cells

Row | Binder | Kd
17 | B1 | 0.179 nM

molecular target: T5, Murine CD73 on cells (4T1, Jurkat mCD73 knock-in) (murine, UniProt Q61503 29-551); assay: flow cytometry on cells
T5 construct: whole, on cells; also called 4T1 (murine)
T5 sequence (looked up): T2 sequence (looked up)

Row | Binder | Kd
18 | B1 | 0.095 nM

molecular target: T6, Cynomolgus CD73 on MK-1 cells (cynomolgus, UniProt A0A2K5V5U7 27-549); assay: flow cytometry on cells
T6 construct: whole, on cells; also called MK-1 (cyno)
T6 sequence: T1 sequence with M199T, T350A, V466I

Row | Binder | Kd
19 | B1 | 0.16 nM

molecular target: T1, Human CD73 ECD; assay: binding assay, format not stated

Row | Binder | 1/EC50
20 | B2 | 0.0021 nM⁻¹
21 | B3 | 0.00085 nM⁻¹
22 | B4 | 0 nM⁻¹
23 | B5 | 0.0017 nM⁻¹
24 | B6 | 0.0041 nM⁻¹
25 | B7 | 0.0011 nM⁻¹

molecular target: T2, Murine CD73 ECD; assay: binding assay, format not stated

Row | Binder | 1/EC50
26 | B2 | 0.0015 nM⁻¹
27 | B3 | 0.00057 nM⁻¹
28 | B6 | 0.0052 nM⁻¹
29 | B8 | 0.00023 nM⁻¹
30 | B7 | 0.00058 nM⁻¹

molecular target: T3, Cynomolgus CD73 ECD; assay: binding assay, format not stated

Row | Binder | 1/EC50
31 | B2 | 0.0027 nM⁻¹
32 | B3 | 0.0012 nM⁻¹
33 | B5 | 0.0014 nM⁻¹
34 | B6 | 0.01 nM⁻¹
35 | B7 | 0.0011 nM⁻¹

molecular target: T1, Human CD73 ECD; assay: direct ELISA, normalized Fab supernatant, vs CD730010 GL9

Row | Binder | ELISA signal, fold improvement over parental antibody
36 | B9 | 8.9 fold
37 | B10 | 1.5 fold
38 | B11 | 1.8 fold
39 | B12 | 5.6 fold
40 | B13 | 3.9 fold
41 | B14 | 4.2 fold
42 | B15 | 8.9 fold
43 | B16 | 4.2 fold

molecular target: T2, Murine CD73 ECD; assay: as above

Row | Binder | ELISA signal, fold improvement over parental antibody
44 | B9 | 4.4 fold
45 | B10 | 1.1 fold
46 | B11 | 1.1 fold
47 | B12 | 4.9 fold
48 | B13 | 2.9 fold
49 | B14 | 3 fold
50 | B15 | 7.1 fold
51 | B16 | 3.7 fold
